Assay results: patent US20210238276A1 (INTEGRAL MOLECULAR, published 2021)
Numbering of substitutions follows the chain as printed.

T1: hsGLUT4 E345Q (human, UniProt P14672 1-509)
T1 construct: also called inward-open lock mutant
T1 sequence: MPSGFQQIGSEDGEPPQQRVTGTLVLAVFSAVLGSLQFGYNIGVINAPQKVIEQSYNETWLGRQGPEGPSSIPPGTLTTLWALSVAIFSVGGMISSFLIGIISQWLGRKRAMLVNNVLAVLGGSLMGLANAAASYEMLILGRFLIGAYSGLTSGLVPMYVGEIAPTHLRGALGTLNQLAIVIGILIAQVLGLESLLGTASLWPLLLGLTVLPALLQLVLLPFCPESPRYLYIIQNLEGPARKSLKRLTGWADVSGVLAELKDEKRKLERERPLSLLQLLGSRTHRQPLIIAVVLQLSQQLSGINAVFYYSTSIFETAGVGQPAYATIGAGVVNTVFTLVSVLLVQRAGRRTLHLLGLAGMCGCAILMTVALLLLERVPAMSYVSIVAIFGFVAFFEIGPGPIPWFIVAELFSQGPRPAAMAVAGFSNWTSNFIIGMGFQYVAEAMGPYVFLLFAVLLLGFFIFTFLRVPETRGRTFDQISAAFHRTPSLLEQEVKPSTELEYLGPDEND

T2: hsGLUT4 Y309I (human, UniProt P14672 1-509)
T2 construct: The running text prints 'Y3091'; also called Y3091 (as printed in the running text); outward-open lock mutant
T2 sequence: T1 sequence with Y309I, Q345E

T3: mouse GLUT1 (mmGLUT1) (mouse, UniProt P17809 1-492)
T3 construct: whole, on cells
T3 sequence (looked up): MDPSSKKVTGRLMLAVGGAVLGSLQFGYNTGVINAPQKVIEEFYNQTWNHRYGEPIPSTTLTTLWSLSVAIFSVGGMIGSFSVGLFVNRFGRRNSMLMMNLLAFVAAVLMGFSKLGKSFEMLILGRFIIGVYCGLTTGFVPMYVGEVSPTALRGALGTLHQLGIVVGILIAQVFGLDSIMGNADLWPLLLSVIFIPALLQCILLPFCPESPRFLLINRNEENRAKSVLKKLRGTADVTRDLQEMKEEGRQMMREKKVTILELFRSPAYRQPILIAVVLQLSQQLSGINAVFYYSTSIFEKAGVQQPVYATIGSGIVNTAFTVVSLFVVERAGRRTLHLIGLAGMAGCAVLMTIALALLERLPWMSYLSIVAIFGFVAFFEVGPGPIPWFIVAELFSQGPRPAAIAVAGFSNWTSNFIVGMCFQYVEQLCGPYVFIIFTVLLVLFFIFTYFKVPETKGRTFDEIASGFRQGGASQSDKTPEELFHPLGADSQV

T4: human GLUT1 (hsGLUT1) (human, UniProt P11166 1-492)
T4 construct: whole, on cells
T4 sequence (looked up): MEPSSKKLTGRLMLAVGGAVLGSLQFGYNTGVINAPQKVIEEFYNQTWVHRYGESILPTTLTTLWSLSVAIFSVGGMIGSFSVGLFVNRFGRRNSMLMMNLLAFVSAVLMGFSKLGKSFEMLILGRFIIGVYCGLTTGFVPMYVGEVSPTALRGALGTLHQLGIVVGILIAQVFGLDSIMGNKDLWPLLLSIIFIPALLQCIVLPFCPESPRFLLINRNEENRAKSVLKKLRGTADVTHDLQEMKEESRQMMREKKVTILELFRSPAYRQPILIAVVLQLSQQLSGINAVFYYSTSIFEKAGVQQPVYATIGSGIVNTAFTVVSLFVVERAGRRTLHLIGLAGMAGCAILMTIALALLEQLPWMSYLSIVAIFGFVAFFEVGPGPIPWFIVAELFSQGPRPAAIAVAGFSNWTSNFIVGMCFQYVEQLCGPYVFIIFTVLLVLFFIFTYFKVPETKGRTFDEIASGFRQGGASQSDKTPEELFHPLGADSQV

B1: AB108 (Fc fusion)
scFv: ALTQPSSVSANLGGTVKITCSGSSGSYGWYQQKAPGSAPVTLIYRNDKRPSDIPSRFSGSESGSTGTLTITGVQAEDEAVYFCGGYDSSAGYAAFGAGTTLTVLGQSSRSSGGGGSSGGGGSAVTLDESGGGLQTPGGALSLVCKASGFTFSSHGMGWVRQAPGKGLEWVGSISTGRYTFYAPAVKGRATISRDNGQSTLRLQLNNLRAEDTGTYYCTKCAGLNGCGGGEIDAWGHGTEVIVSS
notes: Bivalent scFv-Fc; also called MAb AB108; not shown: Fc fragment of human IgG1, cloned in frame with the scFv
B2: AB111 (Fc fusion)
scFv: ALTQPSSVSANPGETVKITCSGSGSWYGWFQQKSPGSAPVTVIYSNDKRPSDIPSRFSGSKSGSTSTLTITGVQVEDEAVYYCGNWDIFGAGTTLTVLGQSSRSSGGGGSSGGGGSAVTLDESGGGLQTPGGALSLVCKASGFTFSSHGMGWVRQAPGKGLEWVASISTGRYTFYAPAVKGRATISRDNGQSTVRLQLNNLRAEDTATYYCTKCAGLNGCGGGEIDAWGHGTEVIVSS
notes: Bivalent scFv-Fc; also called MAb AB111; not shown: Fc fragment of human IgG1, cloned in frame with the scFv
B3: AB101 (scFv)
scFv: ALTQPSSVSANPGETVKITCSGSSNSYGWYQQKSPGSAPVTVIYYNDKRPSDIPSRFSGSKSDSTHTLTITGVRAEDEAVYFCGSYDSTYVGIFGAGTTLTVLGQSSRSSGGGGSSGGGGSAVTLDESGGGLQTPGGTLSLVCKASGFTFSSNAMGWVRQAPGKGLEWVAGISSDGRYTKYGSAVKGRATISRDNGQSTVRLQLNNLRAEDTGTYFCAKAFGNNYRRIYAGQIDAWGHGTEVIVSS
notes: Chicken-derived clone used as a control; the four lead clones were tested as scFv-human IgG1 Fc; also called MAb AB101
B4: AB105 (Fc fusion)
scFv: ALTQPSSVSANPGETVEITCSGDSSYYGWYQQKSPGSAPVTVIYANTNRPSDIPSRFSGSASGSTATLTITGVQAEDEAVYYCGSADSTYAGIFGAGTTLTVLGQSSRSSGGGGSSGGGGSAVTLDESGGGLQTPGGALSLICKASGFTFSSYTMNWVRQAPGKGLEWVGVISNSGRTTNYGAAVQGRATISRDNGQSTVRLQLNNLRAEDTGTYYCAKSSASASCAWWAGRSYPCSANRIDAWGHGTEVIVSS
notes: Bivalent scFv-Fc; also called MAb AB105; not shown: Fc fragment of human IgG1, cloned in frame with the scFv

Legend:
hsGLUT4 E345Q = molecular target: T1, hsGLUT4 E345Q; experiment: flow cytometry, mutant in HEK-293T
hsGLUT4 Y309I = molecular target: T2, hsGLUT4 Y309I; experiment: flow cytometry, mutant in HEK-293T
mouse GLUT1 (mmGLUT1) = molecular target: T3, mouse GLUT1 (mmGLUT1); experiment: flow cytometry, transfected HEK-293T
Procedure: (§1) HEK-293T cells were transfected by CaPO₄ with plasmids in 6-well culture plates (Falcon) at 750,000 cells/well. At 48 hours post transfection, cells were stained with anti-V5 and anti-GLUT4 MAbs (purified scFv, 2 μg/ml) followed by biotinylated goat anti-mouse or human antibody (1:500) and streptavidin-PerCP (1:500). Fluorescence was detected using an Intellicyt high-throughput flow cytometer (HTFC; Intellicyt, Albuquerque, N. Mex.). For cell permeabilization, cells were treated with saponin at 0.1% in PBS for 20 minutes. To discriminate intact (live) and permeabilized (dead) cells without the use of detergent, propidium iodide (PI) was added to HEK-293T cells at 1 ug/ml just prior to flow cytometry. Where indicated, cytochalasin B (Sigma) was used at a final concentration of 10 uM and phloretin (Sigma) was used at a final concentration of 100 uM, each added in 10% NGS for 30 minutes prior to antibody staining as well as included with the primary antibody.

human GLUT1 (hsGLUT1) = molecular target: T4, human GLUT1 (hsGLUT1); experiment: flow cytometry, transfected HEK-293T
Procedure: as §1

Row | Molecule | % of binding to wild type GLUT4 (hsGLUT4 E345Q) | % of binding to wild type GLUT4 (hsGLUT4 Y309I) | binding result (mouse GLUT1 (mmGLUT1)) | binding result (human GLUT1 (hsGLUT1))
1 | 1F8 (antibody) | 91% | 101% | – | –
2 | B1 | 78% | 67% | no binding (tested: 2 µg/ml) | no binding (tested: 2 µg/ml)
3 | B2 | 125% | 154% | no binding (tested: 2 µg/ml) | no binding (tested: 2 µg/ml)
4 | B3 | 96% | 110% | – | –
5 | B4 | 16% | – | no binding (tested: 2 µg/ml) | no binding (tested: 2 µg/ml)
